Target: lysyl-tRNA synthetase (KRS), recombinant (human, UniProt Q15046 1-597)
Assay: SPR

Sequence of lysyl-tRNA synthetase (KRS), recombinant (Q15046 whole entry): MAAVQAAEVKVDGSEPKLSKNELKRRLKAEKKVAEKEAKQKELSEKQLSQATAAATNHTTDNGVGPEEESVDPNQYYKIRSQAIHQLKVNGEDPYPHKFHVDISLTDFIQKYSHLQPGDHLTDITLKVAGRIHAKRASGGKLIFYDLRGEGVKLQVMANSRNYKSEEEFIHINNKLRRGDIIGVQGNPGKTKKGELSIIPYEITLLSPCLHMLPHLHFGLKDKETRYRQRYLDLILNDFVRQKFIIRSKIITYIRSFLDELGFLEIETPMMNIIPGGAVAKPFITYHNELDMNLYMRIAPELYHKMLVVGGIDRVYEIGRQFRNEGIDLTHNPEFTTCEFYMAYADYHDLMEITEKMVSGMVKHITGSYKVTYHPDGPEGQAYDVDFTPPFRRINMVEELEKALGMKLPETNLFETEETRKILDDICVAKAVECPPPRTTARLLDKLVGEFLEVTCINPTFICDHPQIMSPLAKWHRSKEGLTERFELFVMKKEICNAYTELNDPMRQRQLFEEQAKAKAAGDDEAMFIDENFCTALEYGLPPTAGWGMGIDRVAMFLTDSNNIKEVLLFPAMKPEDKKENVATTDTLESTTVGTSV

B1: anti-KRS scFv Biocon-K1 (scFv)
scFv: EVQLLESGGGLVQPGGSLRLSCAASGFTFSNYAMSWVRQAPGKGLEWVSGISPSSGDTYYADSVKGRFTISRDNSKNTLYLQMNSLRAEDTAVYYCAKGVWWYHPLLFDYWGQGTLVTVSSGGGGSGGGGSGGGGSQSVLTQPPSASGTPGQRVTISCSGSSSNIGNNTVSWYQQLPGTAPKLLIYANSKRPSGVPDRFSGSKSGTSASLAISGLRSEDEADYYCGAWDSSLSGYVFGGGTKLTVL
Kd: 110 nM

Reference: US20160377619A1 (published 2016)
